# Experimental data published in patent US20220347265.
# Biological target: C3b (Complement Technology, Cat #A114), labeled with ANS (UniProt P01024)
# Chain of UniProt P01024 (P01024 whole entry, looked up): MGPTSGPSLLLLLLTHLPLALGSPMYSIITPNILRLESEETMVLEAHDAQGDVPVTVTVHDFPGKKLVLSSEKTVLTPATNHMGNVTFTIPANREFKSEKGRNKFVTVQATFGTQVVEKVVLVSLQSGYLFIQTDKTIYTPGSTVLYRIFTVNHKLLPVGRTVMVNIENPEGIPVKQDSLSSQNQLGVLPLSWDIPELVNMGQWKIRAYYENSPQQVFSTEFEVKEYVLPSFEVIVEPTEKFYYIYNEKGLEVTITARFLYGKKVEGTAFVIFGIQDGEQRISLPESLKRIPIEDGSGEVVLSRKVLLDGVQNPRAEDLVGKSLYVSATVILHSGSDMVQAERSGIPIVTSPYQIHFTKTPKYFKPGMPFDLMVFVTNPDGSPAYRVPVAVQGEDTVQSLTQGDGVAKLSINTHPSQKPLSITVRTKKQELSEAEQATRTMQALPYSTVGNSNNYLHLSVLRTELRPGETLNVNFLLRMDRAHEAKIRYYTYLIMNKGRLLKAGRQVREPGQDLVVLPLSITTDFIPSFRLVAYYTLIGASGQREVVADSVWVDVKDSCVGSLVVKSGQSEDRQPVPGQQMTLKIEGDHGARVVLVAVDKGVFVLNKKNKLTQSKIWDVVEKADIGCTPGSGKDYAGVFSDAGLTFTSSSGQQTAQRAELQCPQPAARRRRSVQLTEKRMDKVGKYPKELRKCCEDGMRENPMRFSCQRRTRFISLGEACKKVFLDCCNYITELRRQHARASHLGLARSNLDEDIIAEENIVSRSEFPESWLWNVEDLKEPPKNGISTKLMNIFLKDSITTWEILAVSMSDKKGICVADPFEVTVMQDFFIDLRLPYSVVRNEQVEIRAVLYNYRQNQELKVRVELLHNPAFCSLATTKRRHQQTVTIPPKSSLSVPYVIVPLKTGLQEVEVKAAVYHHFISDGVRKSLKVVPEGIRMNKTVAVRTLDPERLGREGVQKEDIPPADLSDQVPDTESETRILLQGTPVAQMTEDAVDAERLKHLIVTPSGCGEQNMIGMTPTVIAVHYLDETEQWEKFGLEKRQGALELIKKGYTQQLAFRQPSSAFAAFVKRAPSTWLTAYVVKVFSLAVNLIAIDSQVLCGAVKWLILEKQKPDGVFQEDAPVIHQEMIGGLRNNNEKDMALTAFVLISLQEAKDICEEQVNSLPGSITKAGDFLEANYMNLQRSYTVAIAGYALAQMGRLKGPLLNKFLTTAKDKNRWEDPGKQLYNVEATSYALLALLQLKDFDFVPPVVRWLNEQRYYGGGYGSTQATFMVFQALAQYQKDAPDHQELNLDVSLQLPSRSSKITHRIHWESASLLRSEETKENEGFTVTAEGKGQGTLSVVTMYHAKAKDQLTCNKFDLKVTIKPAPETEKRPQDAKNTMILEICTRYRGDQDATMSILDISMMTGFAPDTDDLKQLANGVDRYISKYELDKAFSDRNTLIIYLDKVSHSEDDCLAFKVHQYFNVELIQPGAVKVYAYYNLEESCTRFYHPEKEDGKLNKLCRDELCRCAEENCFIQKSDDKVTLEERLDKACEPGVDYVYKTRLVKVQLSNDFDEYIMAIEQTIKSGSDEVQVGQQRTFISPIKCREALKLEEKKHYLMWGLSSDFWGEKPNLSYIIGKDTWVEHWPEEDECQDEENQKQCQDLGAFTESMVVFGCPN
row,Substance,"fluorescence cofactor assay: cleavage of ANS-labeled C3b to iC3b (change in RFUs over time), with cofactor CFH, MCP or CR1, against wild type CFI"
1,P553S CFI protein,"certain CFI mutations (G119R, A240G, and P553S) were associated with greatly reduced CFI protein function"
2,G119R CFI protein,"certain CFI mutations (G119R, A240G, and P553S) were associated with greatly reduced CFI protein function"
3,A300T CFI protein,the A300T mutation appeared to have relatively little impact on CFI function
4,A240G CFI protein,"certain CFI mutations (G119R, A240G, and P553S) were associated with greatly reduced CFI protein function"
